This note sets out measurements from paper PMC10450164.

Some targets named below: TFAP2A DBD-HSH WT (Homo sapiens, UniProt P05549 203-420); TFAP2B DBD-HSH WT (Homo sapiens, UniProt Q92481 219-457); TFAP2A G262E (Homo sapiens, UniProt P05549 203-420, G262E); TFAP2B R285Q (Homo sapiens, UniProt Q92481 219-457, R285Q); TFAP2B K276R (Homo sapiens, UniProt Q92481 219-457, K276R); TFAP2B V336I (Homo sapiens, UniProt Q92481 219-457, V336I); TFAP2B R300C (Homo sapiens, UniProt Q92481 219-457, R300C); TFAP2B L284S (Homo sapiens, UniProt Q92481 219-457, L284S); TFAP2B R236C (Homo sapiens, UniProt Q92481 219-457, R236C); TFAP2A R217S (Homo sapiens, UniProt P05549 203-420, R217S).

What all share (assay): ITC

Chain of TFAP2A DBD-HSH WT (P05549 203-420): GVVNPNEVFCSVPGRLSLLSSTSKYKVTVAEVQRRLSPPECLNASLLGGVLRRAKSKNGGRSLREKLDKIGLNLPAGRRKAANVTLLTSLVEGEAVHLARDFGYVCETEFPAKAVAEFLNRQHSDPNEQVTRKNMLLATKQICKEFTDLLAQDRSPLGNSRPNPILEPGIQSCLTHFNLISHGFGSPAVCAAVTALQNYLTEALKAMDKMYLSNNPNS
Chain of TFAP2B DBD-HSH WT (Q92481 219-457): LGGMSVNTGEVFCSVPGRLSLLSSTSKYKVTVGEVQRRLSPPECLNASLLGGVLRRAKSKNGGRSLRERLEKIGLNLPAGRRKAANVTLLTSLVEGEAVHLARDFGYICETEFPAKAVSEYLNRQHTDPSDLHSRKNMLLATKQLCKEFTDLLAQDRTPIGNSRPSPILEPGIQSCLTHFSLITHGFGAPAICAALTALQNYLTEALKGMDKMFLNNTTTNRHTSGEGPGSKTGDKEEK
Chain of TFAP2B R236C (Q92481 219-457 R236C): as the sequence (Q92481 219-457) above, with R18C counted along it
Chain of TFAP2B L284S (Q92481 219-457 L284S): as the sequence (Q92481 219-457) above, with L66S counted along it
Chain of TFAP2A R217S (P05549 203-420 R217S): as the sequence (P05549 203-420) above, with R15S counted along it
Chain of TFAP2B R300C (Q92481 219-457 R300C): as the sequence (Q92481 219-457) above, with R82C counted along it
Chain of TFAP2B V336I (Q92481 219-457 V336I): as the sequence (Q92481 219-457) above, with V118I counted along it
Chain of TFAP2B R285Q (Q92481 219-457 R285Q): as the sequence (Q92481 219-457) above, with R67Q counted along it
Chain of TFAP2B K276R (Q92481 219-457 K276R): as the sequence (Q92481 219-457) above, with K58R counted along it
Chain of TFAP2A G262E (P05549 203-420 G262E): as the sequence (P05549 203-420) above, with G60E counted along it

B1: TGA (dsDNA)
DNA 1: GTGCCTGAGGCAG
DNA 2: CTGCCTCAGGCAC
Turning to B1, the dissociation constant Kd with TFAP2A DBD-HSH WT is 17 ± 1 nM; with TFAP2B DBD-HSH WT, 19 ± 2 nM.

B2: GmCC/GGC (dsDNA)
DNA 1: GTGCCCGAGGCAG
DNA 2: CTGCCTCGGGCAC
modifications: methylcytosine at position 4 of strand 1; second strand methylation not stated
Take B2: the figures for the dissociation constant (Kd) with TFAP2A DBD-HSH WT and with TFAP2B DBD-HSH WT were 347 ± 3 nM and 299 ± 22 nM, respectively.

B3: cCC/GGg (dsDNA)
DNA 1: GTCCCCGAGGGAG
DNA 2: CTCCCTCGGGGAC
On to B3, for which the Kd with TFAP2A DBD-HSH WT was 336 ± 53 nM; with TFAP2B DBD-HSH WT it was 355 ± 57 nM.

B4: tCC/GGC (dsDNA)
DNA 1: GTTCCCGAGGCAG
DNA 2: CTGCCTCGGGAAC
Consider B4, for which the values for the Kd with TFAP2A DBD-HSH WT and with TFAP2B DBD-HSH WT were 565 ± 87 nM and 248 ± 49 nM, respectively.

B5: GCt/GGC (dsDNA)
DNA 1: GTGCTCGAGGCAG
DNA 2: CTGCCTCGAGCAC
Regarding B5, the results for the equilibrium dissociation constant (Kd) in the data set with TFAP2A DBD-HSH WT and with TFAP2B DBD-HSH WT were 694 ± 71 nM and 461 ± 71 nM, respectively.

B6: GCmC/GGC (dsDNA)
DNA 1: GTGCCCGAGGCAG
DNA 2: CTGCCTCGGGCAC
modifications: methylcytosine at position 5 of strand 1; second strand methylation not stated
B6: the Kd is 107 ± 3 nM with TFAP2A DBD-HSH WT and 126 ± 12 nM in the data set with TFAP2B DBD-HSH WT.

B7: CGA (GCC(N3)GGC) (dsDNA)
DNA 1: GTGCCCGAGGCAG
DNA 2: CTGCCTCGGGCAC
Consider B7, for which the Kd with TFAP2A G262E was determined as 129 ± 22 nM; with TFAP2B R285Q, 178 ± 43 nM; with TFAP2A DBD-HSH WT, 19 ± 1 nM; in the data set with TFAP2B K276R it was 382 ± 36 nM; with TFAP2B V336I, 44 ± 9 nM; with TFAP2B R300C, 88 ± 20 nM. This molecule also displayed a Kd in the data set with TFAP2B DBD-HSH WT of 18 ± 2 nM. In addition, the binding result with TFAP2B L284S, with TFAP2B R236C and with TFAP2A R217S was “no binding” in each case.

B8: N4 (4 bp spacer) (dsDNA)
DNA 1: GTGCCCGATGGCAG
DNA 2: CTGCCATCGGGCAC
With B8, the Kd with TFAP2A DBD-HSH WT turned out to be 341 ± 20 nM; with TFAP2B DBD-HSH WT it was 340 ± 17 nM.

B9: cCC/GGC (dsDNA)
DNA 1: GTCCCCGAGGCAG
DNA 2: CTGCCTCGGGGAC
Take B9: the Kd was 78 ± 16 nM with TFAP2A DBD-HSH WT and 55 ± 7 nM with TFAP2B DBD-HSH WT.

B10: aCC/GGC (dsDNA)
DNA 1: GTACCCGAGGCAG
DNA 2: CTGCCTCGGGTAC
Consider B10, for which the equilibrium dissociation constant (Kd) in the data set with TFAP2A DBD-HSH WT is 373 ± 46 nM; with TFAP2B DBD-HSH WT, 313 ± 69 nM.
